No end group written: not given here.
Target: formyl peptide receptor 2 (Fpr2/ALX), murine (mouse (endogenous in C57BL/6 and STM mice)) (UniProt O88536)
UniProt O88536, sequence (O88536 whole entry): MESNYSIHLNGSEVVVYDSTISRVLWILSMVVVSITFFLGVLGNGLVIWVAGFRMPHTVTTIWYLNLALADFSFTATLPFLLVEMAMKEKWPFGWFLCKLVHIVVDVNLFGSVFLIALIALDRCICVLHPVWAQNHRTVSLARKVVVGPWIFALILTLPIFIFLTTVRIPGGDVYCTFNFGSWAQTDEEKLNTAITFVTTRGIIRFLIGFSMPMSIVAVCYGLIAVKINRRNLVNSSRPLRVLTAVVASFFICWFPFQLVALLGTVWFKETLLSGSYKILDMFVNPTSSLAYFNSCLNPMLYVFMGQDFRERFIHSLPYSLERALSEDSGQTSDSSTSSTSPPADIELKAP

increase in blood flow (cessation time) in cerebral venules of sickle cell transgenic mice given AnxA1 (Ac2-26) 4 mg/kg vs. saline, light/dye thrombosis; mitigated by co-administration of Boc2 or WRW4: 63.5%
Binder: Ac-AMVSEFLKQAWFIENEEQEYVQTVK [AnxA1 mimetic peptide AnxA1_(Ac2-26)]
